Article PMC10030575, “The IgV domain of the poliovirus receptor alone is immunosuppressive and binds to its receptors with comparable affinity” (Scientific Reports, 2023)
Where two headings read alike, the source gives them in different places.

B1: vdPVR-Fc (IgV-domain PVR-Fc) (Fc fusion, mouse, UniProt Q8K094 29-147, looked up)
chain: DIRVLVPYNSTGVLGGSTTLHCSLTSNENVTITQITWMKKDSGGSHALVAVFHPKKGPNIKEPERVKFLAAQQDLRNASLAISNLSVEDEGIYECQIATFPRGSRSTNAWLKVQARPKN
notes: murine PVR (poliovirus receptor, CD155), IgV domain of the extracellular domain, residues 29-147 of NP_081790.1; An Ig-kappa leader at the 5' end drives secretion; Migrates as a dimer (~94 kDa) without reducing agent; also called minimal murine PVR-Fc fusion construct; source: Expi293F cells, secreted, purified (protein A); not shown: Fc (human IgG1; P01857 residues 100-330; joined by linker …)

Legend:
Assay in all cases: SPR; Biacore T200; His-tagged receptors captured on an anti-histidine antibody CM5 chip (1-5 ug/mL, 30 uL/min); five concentrations (1:2 serial dilutions) of the PVR-Fc constructs flowed over, single-cycle kinetics; HBS-EP (20 mM HEPES pH 7.4, 150 mM NaCl, 0.005% Tween-20, 3.4 mM EDTA); 1:1 Langmuir model
[1] = molecular target: T1, recombinant mouse TIGIT-Fc-his (mouse, UniProt P86176 29-148)
T1 construct: mouse TIGIT (T-cell immunoglobulin and ITIM domain), recombinant; also called mTIGIT-Fc-his; mTIGIT; source: bought: Biolegend (771808)
T1 sequence (looked up): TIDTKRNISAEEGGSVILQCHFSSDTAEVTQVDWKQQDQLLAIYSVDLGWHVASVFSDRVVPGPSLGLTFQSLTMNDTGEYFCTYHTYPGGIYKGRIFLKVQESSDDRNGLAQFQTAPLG

[2] = molecular target: T2, recombinant mouse CD226-his (mouse, UniProt Q8K4F0 19-254)
T2 construct: mouse CD226 (DNAM1), recombinant; also called mCD226-his; mCD226; source: bought: SinoBiological (50232-M08H)
T2 sequence (looked up): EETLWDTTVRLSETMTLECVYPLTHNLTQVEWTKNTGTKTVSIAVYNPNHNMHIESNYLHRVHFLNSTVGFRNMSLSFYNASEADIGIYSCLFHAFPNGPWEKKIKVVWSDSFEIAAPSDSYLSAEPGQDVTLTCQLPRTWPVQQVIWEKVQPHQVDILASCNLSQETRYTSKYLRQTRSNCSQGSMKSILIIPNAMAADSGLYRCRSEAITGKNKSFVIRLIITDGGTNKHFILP

[3] = molecular target: T3, recombinant mouse CD96-his (mouse, UniProt Q3U0X8 22-536)
T3 construct: mouse CD96 (TACTILE), recombinant; also called mCD96-his; mCD96; source: bought: Biolegend (788806)
T3 sequence (looked up): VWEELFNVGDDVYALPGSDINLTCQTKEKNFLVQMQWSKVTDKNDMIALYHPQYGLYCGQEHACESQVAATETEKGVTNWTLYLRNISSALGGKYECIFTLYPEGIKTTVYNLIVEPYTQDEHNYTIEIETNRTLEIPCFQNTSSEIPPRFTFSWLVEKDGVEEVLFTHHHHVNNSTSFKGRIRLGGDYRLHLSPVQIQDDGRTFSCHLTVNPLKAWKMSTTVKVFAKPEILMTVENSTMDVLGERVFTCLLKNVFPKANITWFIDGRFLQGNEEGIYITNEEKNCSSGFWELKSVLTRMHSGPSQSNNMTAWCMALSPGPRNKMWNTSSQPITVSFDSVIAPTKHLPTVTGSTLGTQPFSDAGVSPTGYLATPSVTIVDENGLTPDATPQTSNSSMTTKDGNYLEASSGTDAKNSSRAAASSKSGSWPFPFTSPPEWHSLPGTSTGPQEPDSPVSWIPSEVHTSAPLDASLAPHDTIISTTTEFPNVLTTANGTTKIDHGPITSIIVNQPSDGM

Molecule | Kd [1] | kon [1] | Kd [2] | koff [2] | kon [2] | Kd [3] | koff [3] | kon [3] | Kd ([1]; both partners purified) | koff ([1]; both partners purified) | kon ([1]; both partners purified) | Kd ([2]; both partners purified) | koff ([2]; both partners purified) | kon ([2]; both partners purified) | Kd ([3]; both partners purified) | koff ([3]; both partners purified) | kon ([3]; both partners purified)
full length PVR-Fc (full-length mouse PVR ECD-Fc) (Fc fusion) | 2.26 nM | 2.25e+07 M⁻¹ s⁻¹ | 0.83 nM | 0.00651 s⁻¹ | 3.2e+06 M⁻¹ s⁻¹ | 4.07 nM | 0.00455 s⁻¹ | 1.17e+06 M⁻¹ s⁻¹ | – | – | – | – | – | – | – | – | –
B1 | – | – | – | – | – | – | – | – | 2.25 nM | 0.0656 s⁻¹ | 2.92e+07 M⁻¹ s⁻¹ | 0.69 nM | 0.00184 s⁻¹ | 2.67e+06 M⁻¹ s⁻¹ | 1.72 nM | 0.00286 s⁻¹ | 3.52e+06 M⁻¹ s⁻¹
